Measured values from patent US20250264476A1, “AMINO ACID-SPECIFIC BINDER AND SELECTIVELY IDENTIFYING AN AMINO ACID” (Government of the United States of America, as represented …, priority 2021, published 2025).

Tested on: biotinylated peptides that vary only by their N-terminal amino acid
Assay: Bio-layer interferometry (BLI) binding of ClpS to biotinylated peptides on streptavidin probe
Settings: ClpS at 0.312-40 μM in 20 mM HEPES pH 8, 150 mM KCl, 0.1% BSA, 0.05% Tween-20
Experimental: The initial binding activity of T. elongatus ClpS2 was characterized using bio-laver interferometry (BLI) In BLI, a functionalized fiber-optic probe is placed in a solution of analyte and the accumulation of analyte on the functional group of the probe is measured by changes in reflected light within the probe. A BLI probe functionalized with streptavidin is allowed to accumulate biotinylated peptide. Probes with peptide are then placed in solutions of ClpS of varying concentration and allowed to equilibrate. BLI response is then graphed to concentration to establish a binding curve. Dilutions of T. elongatus ClpS2 were made in 20 mM HEPES pH 8, 150 mM KCl, 0.1% BSA, and 0.05% Tween-20 at concentrations of 0.312, 0.625, 1.25, 2.5, 5, 10, 20, and 40 μM.
With regard to peptides, all peptides are named by indicating the first two residues, with the full sequence available in Table 3. All of the peptides had the same sequence for the C-terminal end of the peptide, XXAVECK (Sequence ID No. 18), where the N-terminal amino acids are varied. The peptides also contained a biotin linked via the lysine side chain on the C-terminal residue. X1G2 peptides started from a lyophilized form. Peptides were resuspended in 1×DPBS and diluted to the appropriate concentration into the experiment buffer. […]

Sequence of biotinylated peptides that vary only by their N-terminal amino acid (as listed by the source): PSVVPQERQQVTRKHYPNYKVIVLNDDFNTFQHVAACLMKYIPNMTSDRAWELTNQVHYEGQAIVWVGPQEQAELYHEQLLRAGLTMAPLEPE

binding preference across four peptides that vary only by their N-terminal amino acid: strong preference for binding leucine
B1: T. elongatus ClpS2: wild-type ClpS protein, N-End Rule Pathway adaptor protein, parent of the engineered variants (protein, listed as Thermosynechococcus elongatus)
chain: ASVVPQEGQQVTRKHYPNYKVIVLNDDFNTFRHVAACLMKYIPNMTSDRAWELTNQVHYEGQAIVWVGPQEQAELYHEQLLRAGLTMAPLEPEGS
